The assay addresses AcrB (from pET21a-acrBΔHis) (E. coli) (UniProt P31224). The assay is described as follows: cryo-EM structure; AcrB/DARPin and AcrBZ/DARPin reconstituted in saposin A discs with E. coli lipids, with or without additional 5% cardiolipin; 20 mM Tris-Cl pH 7.5, 150 mM NaCl; 2 mM minocycline (AcrB) or 1 mM chloramphenicol (AcrBZ) added.

For the substance “AcrB (from pET21a-acrBΔHis) (from UniProt P31224) (natural protein)”, the stoichiometry N (commonly a count of units in the complex or per binding partner) came to 3.

The values above are taken from paper PMC7267776.
